Target: HCMV capsid (icosahedral T=16 capsid shell of MCP, mCP, mC-BP and SCP) (human cytomegalovirus strain AD169)
Test: co-sedimentation

Substance: UL32-encoded basic phosphorylated protein pp150 (natural protein)
- % decrease in chemically treated particles: 5%

From article PMC3684277
